{"source": "patent US20080032921A1", "key": {"HLA-DR DRB1*0401 (human) [1]": {"molecular_target": "HLA-DR DRB1*0401 (human)", "experiment": "competition assay, purified HLA, inhibition of 125I-labelled reference peptide"}, "HLA-DR DRB1*0101 (human) [2]": {"molecular_target": "HLA-DR DRB1*0101 (human)", "experiment": "competition assay, purified HLA, inhibition of 125I-labelled reference peptide"}, "HLA-DR DRB4*0101 (human) [3]": {"molecular_target": "HLA-DR DRB4*0101 (human)", "experiment": "competition assay, purified HLA, inhibition of 125I-labelled reference peptide"}, "HLA-DR DRB1*1501 (human) [4]": {"molecular_target": "HLA-DR DRB1*1501 (human)", "experiment": "competition assay, purified HLA, inhibition of 125I-labelled reference peptide"}, "HLA-DR DRB1*1302 (human) [5]": {"molecular_target": "HLA-DR DRB1*1302 (human)", "experiment": "competition assay, purified HLA, inhibition of 125I-labelled reference peptide"}, "HLA-DR DRB1*0301 (human) [6]": {"molecular_target": "HLA-DR DRB1*0301 (human)", "experiment": "competition vs 125I-labeled peptide, purified HLA"}, "HLA-DR DRB1*0401 (human) [7]": {"molecular_target": "HLA-DR DRB1*0401 (human)"}, "HLA-DR DRB1*0101 (human) [8]": {"molecular_target": "HLA-DR DRB1*0101 (human)"}, "HLA-DR DRB1*1302 (human) [9]": {"molecular_target": "HLA-DR DRB1*1302 (human)"}, "HLA-DR DRB1*0404 (human) [10]": {"molecular_target": "HLA-DR DRB1*0404 (human)"}, "HLA-DR DRB1*0405 (human) [11]": {"molecular_target": "HLA-DR DRB1*0405 (human)"}, "HLA-DR DRB1*0901 (human)": {"molecular_target": "HLA-DR DRB1*0901 (human)", "experiment": "competition with 125I-labelled peptide, purified HLA"}, "HLA-DR DRB1*0401 (human) [12]": {"molecular_target": "HLA-DR DRB1*0401 (human)", "experiment": "competition with 125I-labelled peptide, purified HLA"}, "HLA-DR DRB1*0101 (human) [13]": {"molecular_target": "HLA-DR DRB1*0101 (human)", "experiment": "competition with 125I-labelled peptide, purified HLA"}, "HLA-DR DRB4*0101 (human) [14]": {"molecular_target": "HLA-DR DRB4*0101 (human)", "experiment": "competition with 125I-labelled peptide, purified HLA"}, "HLA-DR DRB1*1501 (human) [15]": {"molecular_target": "HLA-DR DRB1*1501 (human)", "experiment": "competition with 125I-labelled peptide, purified HLA"}, "HLA-DR DRB1*1302 (human) [16]": {"molecular_target": "HLA-DR DRB1*1302 (human)", "experiment": "competition with 125I-labelled peptide, purified HLA"}, "HLA-DR DRB1*0701 (human)": {"molecular_target": "HLA-DR DRB1*0701 (human)", "experiment": "competition with 125I-labelled peptide, purified HLA"}, "HLA-DR DRB1*0404 (human) [17]": {"molecular_target": "HLA-DR DRB1*0404 (human)", "experiment": "competition with 125I-labelled peptide, purified HLA"}, "HLA-DR DRB1*0802 (human)": {"molecular_target": "HLA-DR DRB1*0802 (human)", "experiment": "competition with 125I-labelled peptide, purified HLA"}, "HLA-DR DRB1*0301 (human) [18]": {"molecular_target": "HLA-DR DRB1*0301 (human)", "experiment": "competition with 125I-labelled peptide, purified HLA"}, "HLA-DR DRB1*0405 (human) [19]": {"molecular_target": "HLA-DR DRB1*0405 (human)", "experiment": "competition with 125I-labelled peptide, purified HLA"}, "HLA-DR DRB5*0101 (human)": {"molecular_target": "HLA-DR DRB5*0101 (human)", "experiment": "competition with 125I-labelled peptide, purified HLA"}, "HLA-DR DRB1*1101 (human)": {"molecular_target": "HLA-DR DRB1*1101 (human)", "experiment": "competition with 125I-labelled peptide, purified HLA"}}, "note": "Read-outs that look alike come from different tables or passages of the source.", "data": [{"binder": "VMRMGDLHSLQNRNG (modifications not checked)", "note": "[Flu.NS2.125]", "values": [{"measurement": "IC50", "setting": "HLA-DR DRB1*0401 (human) [1]", "result": 448, "unit": "nM"}, {"measurement": "IC50", "setting": "HLA-DR DRB1*0101 (human) [2]", "result": 249, "unit": "nM"}, {"measurement": "IC50", "setting": "HLA-DR DRB4*0101 (human) [3]", "result": 8820, "unit": "nM"}, {"measurement": "IC50", "setting": "HLA-DR DRB1*1501 (human) [4]", "result": 372, "unit": "nM"}, {"measurement": "IC50", "setting": "HLA-DR DRB1*1302 (human) [5]", "result": 1370, "unit": "nM"}]}, {"binder": "CEQIADSQHRSHRQM (modifications not checked)", "note": "[Flu.M1.154]", "values": [{"measurement": "IC50", "setting": "HLA-DR DRB1*0301 (human) [6]", "result": 804, "unit": "nM"}, {"measurement": "IC50", "setting": "HLA-DR DRB1*0401 (human) [7]", "result": "> 10000", "unit": "nM"}, {"measurement": "IC50", "setting": "HLA-DR DRB1*0101 (human) [8]", "result": "> 10000", "unit": "nM"}, {"measurement": "IC50", "setting": "HLA-DR DRB1*1302 (human) [9]", "result": "> 10000", "unit": "nM"}, {"measurement": "IC50", "setting": "HLA-DR DRB1*0404 (human) [10]", "result": "> 10000", "unit": "nM"}, {"measurement": "IC50", "setting": "HLA-DR DRB1*0405 (human) [11]", "result": "> 10000", "unit": "nM"}]}, {"binder": "SLMLQIGNMISIWVSHS (modifications not checked)", "note": "[Flu.NA.21]", "values": [{"measurement": "IC50", "setting": "HLA-DR DRB1*0901 (human)", "result": 86, "unit": "nM"}, {"measurement": "IC50", "setting": "HLA-DR DRB1*0401 (human) [12]", "result": 5, "unit": "nM"}, {"measurement": "IC50", "setting": "HLA-DR DRB1*0101 (human) [13]", "result": 8, "unit": "nM"}, {"measurement": "IC50", "setting": "HLA-DR DRB4*0101 (human) [14]", "result": 8, "unit": "nM"}, {"measurement": "IC50", "setting": "HLA-DR DRB1*1501 (human) [15]", "result": 8, "unit": "nM"}, {"measurement": "IC50", "setting": "HLA-DR DRB1*1302 (human) [16]", "result": 10, "unit": "nM"}, {"measurement": "IC50", "setting": "HLA-DR DRB1*0701 (human)", "result": 13, "unit": "nM"}, {"measurement": "IC50", "setting": "HLA-DR DRB1*0404 (human) [17]", "result": 3, "unit": "nM"}, {"measurement": "IC50", "setting": "HLA-DR DRB1*0802 (human)", "result": 89, "unit": "nM"}, {"measurement": "IC50", "setting": "HLA-DR DRB1*0301 (human) [18]", "result": 441, "unit": "nM"}, {"measurement": "IC50", "setting": "HLA-DR DRB1*0405 (human) [19]", "result": 66, "unit": "nM"}, {"measurement": "IC50", "setting": "HLA-DR DRB5*0101 (human)", "result": 24, "unit": "nM"}, {"measurement": "IC50", "setting": "HLA-DR DRB1*1101 (human)", "result": 83, "unit": "nM"}]}, {"binder": "DILMRMSKMQLGSSS (modifications not checked)", "note": "[Flu.NS2.87]", "values": [{"measurement": "IC50", "setting": "HLA-DR DRB1*0401 (human) [1]", "result": 717, "unit": "nM"}, {"measurement": "IC50", "setting": "HLA-DR DRB1*0101 (human) [2]", "result": 2140, "unit": "nM"}, {"measurement": "IC50", "setting": "HLA-DR DRB4*0101 (human) [3]", "result": 11, "unit": "nM"}, {"measurement": "IC50", "setting": "HLA-DR DRB1*1501 (human) [4]", "result": 748, "unit": "nM"}, {"measurement": "IC50", "setting": "HLA-DR DRB1*1302 (human) [5]", "result": 423, "unit": "nM"}]}]}
